Source: patent US12649783B2, “Anti-MCT1 antibodies and uses thereof” (IMMUNEXT INC., priority 2018, dated 2026)

Tested on: Tr1 cells
Test: ex vivo Tr1 survival
Format: cell-based, human
Experimental: Humanized NSG mice (treated with anti-MCT1) were sacrificed on d32 or other day specified, single cells suspensions were prepared from spleens, followed by bead-based enrichment of hCD3+ cells. Isolated cells were plated with the analytes (see above table) to access Tr1 survival: […]

B1: IL-7: Recombinant Human IL-7 (carrier-free), Biolegend 581904 (protein, UniProt P13232 26-177, looked up)
Interleukin-7: DCDIEGKDGKQYESVLMVSIDQLLDSMKEIGSNCLNNEFNFFKRHICDANKEGMFLFRAARKLRQFLKMNSTGDFDLHLLKVSEGTTILLNCTGQVKGRKPAALGEAQPTKSLEENKSLKEQKKLNDLCFLKRLLQEIKTCWNKILMGTKEH
ex vivo Tr1 survival: increased ex vivo Tr1 survival in a dose-dependent manner
